# Assay results: paper doi:10.1101/2024.10.14.618219 (bioRxiv, 2024)
# B1: Kap3 (natural protein, human, UniProt Q92845 1-792, looked up)
# chain: MQGEDARYLKRKVKGGNIDVHPSEKALIVHYEVEATILGEMGDPMLGERKECQKIIRLKSLNANTDITSLARKVVEECKLIHPSKLNEVEQLLYYLQNRRDSLSGKEKKEKSSKPKDPPPFEGMEIDEVANINDMDEYIELLYEDIPDKVRGSALILQLARNPDNLEELLLNETALGALARVLREDWKQSVELATNIIYIFFCFSSFSQFHGLITHYKIGALCMNIIDHELKRHELWQEELSKKKKAVDEDPENQTLRKDYEKTFKKYQGLVVKQEQLLRVALYLLLNLAEDTRTELKMRNKNIVHMLVKALDRDNFELLILVVSFLKKLSIFMENKNDMVEMDIVEKLVKMIPCEHEDLLNITLRLLLNLSFDTGLRNKMVQVGLLPKLTALLGNDNYKQIAMCVLYHISMDDRFKSMFAYTDCIPQLMKMLFECSDERIDLELISFCINLAANKRNVQLICEGNGLKMLMKRALKFKDPLLMKMIRNISQHDGPTKNLFIDYVGDLAAQISNDEEEEFVIECLGTLANLTIPDLDWELVLKEYKLVPYLKDKLKPGAAEDDLVLEVVIMIGTVSMDDSCAALLAKSGIIPALIELLNAQQEDDEFVCQIIYVFYQMVFHQATRDVIIKETQAPAYLIDLMHDKNNEIRKVCDNTLDIIAEYDEEWAKKIQSEKFRWHNSQWLEMVESRQMDESEQYLYGDDRIEPYIHEGDILERPDLFYNSDGLIASEGAISPDFFNDYHLQNGDVVGQHSFPGSLGMDGFGQPVGILGRPATAYGFRPDEPYYYGYGS
# modifications: SNAPf tag labeled with TMR in the co-localization assay
# Experiments:
# Experiment in all cases: single-molecule TIRF co-localization
# Kif3A-Kif3B^ΔC114 = Kif3A-Kif3B^ΔC114 (human, UniProt Q9Y496 1-699; O15066 1-633, SNAPf tag labeled with Alexa 647)
# Chain of Kif3A-Kif3B^ΔC114 (Q9Y496 whole entry, stated change not applied, chain 1 of 2): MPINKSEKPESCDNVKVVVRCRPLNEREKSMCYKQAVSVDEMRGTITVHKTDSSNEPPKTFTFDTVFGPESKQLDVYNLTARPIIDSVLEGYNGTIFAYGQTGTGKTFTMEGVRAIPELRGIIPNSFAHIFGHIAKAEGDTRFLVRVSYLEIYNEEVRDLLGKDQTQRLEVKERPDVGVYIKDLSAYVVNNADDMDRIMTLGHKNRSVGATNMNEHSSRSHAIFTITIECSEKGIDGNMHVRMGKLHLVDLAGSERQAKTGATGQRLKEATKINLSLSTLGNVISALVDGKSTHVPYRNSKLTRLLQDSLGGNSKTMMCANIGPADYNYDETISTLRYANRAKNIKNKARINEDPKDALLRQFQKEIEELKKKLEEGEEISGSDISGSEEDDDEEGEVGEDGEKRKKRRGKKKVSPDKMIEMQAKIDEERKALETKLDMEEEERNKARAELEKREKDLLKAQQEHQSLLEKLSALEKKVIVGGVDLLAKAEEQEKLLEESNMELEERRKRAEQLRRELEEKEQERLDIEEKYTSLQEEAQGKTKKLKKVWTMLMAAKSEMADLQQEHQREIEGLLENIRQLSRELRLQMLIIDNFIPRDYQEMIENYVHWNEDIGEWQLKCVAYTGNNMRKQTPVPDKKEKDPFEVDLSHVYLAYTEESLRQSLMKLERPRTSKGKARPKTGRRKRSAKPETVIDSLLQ
# Chain of Kif3A-Kif3B^ΔC114 (O15066 1-633, stated change not applied, chain 2 of 2): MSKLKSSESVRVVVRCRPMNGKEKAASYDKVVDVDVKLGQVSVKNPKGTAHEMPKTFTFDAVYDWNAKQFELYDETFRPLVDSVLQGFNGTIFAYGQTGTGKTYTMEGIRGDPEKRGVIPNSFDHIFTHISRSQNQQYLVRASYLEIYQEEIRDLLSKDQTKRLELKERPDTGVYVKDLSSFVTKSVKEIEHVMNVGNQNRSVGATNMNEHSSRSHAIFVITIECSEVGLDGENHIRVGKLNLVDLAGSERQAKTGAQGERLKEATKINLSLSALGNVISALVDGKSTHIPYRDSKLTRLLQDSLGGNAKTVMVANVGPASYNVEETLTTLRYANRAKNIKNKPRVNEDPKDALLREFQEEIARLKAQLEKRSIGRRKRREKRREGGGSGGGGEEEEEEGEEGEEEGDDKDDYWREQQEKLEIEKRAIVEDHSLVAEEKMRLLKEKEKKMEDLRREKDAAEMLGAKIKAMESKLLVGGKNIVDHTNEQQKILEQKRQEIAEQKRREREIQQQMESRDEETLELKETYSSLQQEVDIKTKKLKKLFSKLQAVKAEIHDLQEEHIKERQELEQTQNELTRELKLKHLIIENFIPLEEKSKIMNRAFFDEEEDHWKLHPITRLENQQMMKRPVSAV
# Kif3A-Kif3B^ΔC90 = Kif3A-Kif3B^ΔC90 (human, UniProt Q9Y496 1-699; O15066 1-657, SNAPf tag labeled with Alexa 647)
# Chain of Kif3A-Kif3B^ΔC90 (Q9Y496 whole entry, stated change not applied, chain 1 of 2): as the sequence (Q9Y496 whole entry, stated change not applied, chain 1 of 2) above
# Chain of Kif3A-Kif3B^ΔC90 (O15066 1-657, stated change not applied, chain 2 of 2): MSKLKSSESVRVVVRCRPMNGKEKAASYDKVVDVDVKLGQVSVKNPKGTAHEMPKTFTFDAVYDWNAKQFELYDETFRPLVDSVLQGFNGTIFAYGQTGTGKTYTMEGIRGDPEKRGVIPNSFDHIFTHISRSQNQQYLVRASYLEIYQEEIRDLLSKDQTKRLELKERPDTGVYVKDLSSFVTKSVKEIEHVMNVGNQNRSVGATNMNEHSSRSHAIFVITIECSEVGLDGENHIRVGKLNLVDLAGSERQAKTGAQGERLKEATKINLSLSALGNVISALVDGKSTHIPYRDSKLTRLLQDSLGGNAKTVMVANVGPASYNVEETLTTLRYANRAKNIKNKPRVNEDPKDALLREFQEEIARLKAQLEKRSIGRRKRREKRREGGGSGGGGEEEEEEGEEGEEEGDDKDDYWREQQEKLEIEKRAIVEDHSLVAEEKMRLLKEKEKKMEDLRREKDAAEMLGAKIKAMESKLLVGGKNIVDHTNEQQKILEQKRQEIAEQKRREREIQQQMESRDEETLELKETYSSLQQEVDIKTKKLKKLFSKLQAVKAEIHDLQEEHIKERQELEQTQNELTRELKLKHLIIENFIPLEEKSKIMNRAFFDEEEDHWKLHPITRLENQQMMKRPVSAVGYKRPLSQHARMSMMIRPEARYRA
# Kif3A^ΔC89-Kif3B = Kif3A^ΔC89-Kif3B (human, UniProt Q9Y496 1-610; O15066 1-747, SNAPf tag labeled with Alexa 647)
# Chain of Kif3A^ΔC89-Kif3B (Q9Y496 1-610, stated change not applied, chain 1 of 2): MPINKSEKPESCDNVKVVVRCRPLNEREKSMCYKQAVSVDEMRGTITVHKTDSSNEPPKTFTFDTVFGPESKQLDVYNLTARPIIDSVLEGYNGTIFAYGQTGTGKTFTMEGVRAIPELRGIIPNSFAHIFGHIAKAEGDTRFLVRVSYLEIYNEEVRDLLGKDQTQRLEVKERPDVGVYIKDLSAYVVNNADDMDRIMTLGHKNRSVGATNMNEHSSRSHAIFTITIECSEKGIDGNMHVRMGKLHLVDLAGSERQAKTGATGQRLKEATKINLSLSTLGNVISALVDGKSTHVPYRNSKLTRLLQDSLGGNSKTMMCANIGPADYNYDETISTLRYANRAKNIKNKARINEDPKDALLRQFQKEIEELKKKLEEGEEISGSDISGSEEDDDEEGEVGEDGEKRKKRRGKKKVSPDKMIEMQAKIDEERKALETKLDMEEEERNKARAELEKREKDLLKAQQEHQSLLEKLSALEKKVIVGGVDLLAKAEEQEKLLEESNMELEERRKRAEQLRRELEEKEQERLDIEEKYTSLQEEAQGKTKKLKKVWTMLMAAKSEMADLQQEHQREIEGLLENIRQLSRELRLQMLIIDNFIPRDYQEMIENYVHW
# Chain of Kif3A^ΔC89-Kif3B (O15066 whole entry, stated change not applied, chain 2 of 2): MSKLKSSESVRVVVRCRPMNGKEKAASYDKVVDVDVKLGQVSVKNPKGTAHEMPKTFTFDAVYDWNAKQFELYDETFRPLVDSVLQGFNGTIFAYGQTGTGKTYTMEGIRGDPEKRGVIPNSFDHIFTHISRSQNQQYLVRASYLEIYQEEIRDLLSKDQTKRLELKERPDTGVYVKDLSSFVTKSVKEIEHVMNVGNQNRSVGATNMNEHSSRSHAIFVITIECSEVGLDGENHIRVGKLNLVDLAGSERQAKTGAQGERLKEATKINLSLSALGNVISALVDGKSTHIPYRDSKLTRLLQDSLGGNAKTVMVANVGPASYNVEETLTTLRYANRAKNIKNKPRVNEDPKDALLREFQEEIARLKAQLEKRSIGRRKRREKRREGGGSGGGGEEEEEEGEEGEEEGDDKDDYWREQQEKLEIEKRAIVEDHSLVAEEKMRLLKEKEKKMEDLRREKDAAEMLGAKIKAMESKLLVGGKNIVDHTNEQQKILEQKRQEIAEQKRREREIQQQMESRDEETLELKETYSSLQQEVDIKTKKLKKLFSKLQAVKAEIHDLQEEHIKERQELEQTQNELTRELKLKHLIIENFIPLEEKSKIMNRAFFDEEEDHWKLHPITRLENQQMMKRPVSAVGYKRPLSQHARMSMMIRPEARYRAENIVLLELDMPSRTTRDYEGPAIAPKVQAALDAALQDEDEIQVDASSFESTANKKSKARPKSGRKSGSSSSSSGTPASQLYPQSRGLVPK
binder,measurement,setting,value
B1,percent of Kif3AB molecules with Kap3 co-localized,Kif3A-Kif3B^ΔC114,50%
same,percent of Kif3AB molecules with Kap3 co-localized,Kif3A-Kif3B^ΔC90,62%
same,percent of Kif3AB molecules with Kap3 co-localized,Kif3A^ΔC89-Kif3B,26%
